Experiments:
[1] = tested on: DBA/2J mice; test: DBA/2J chronic glaucoma mouse model, monthly intravitreal administration; type: in vivo; conditions: 10 m-old DBA/2J mice
Experimental: Adult (10-12 weeks old) male and female C57BL/6J (B6) (The Jackson Laboratory, 000664), Cx3cr1^GFP (The Jackson Laboratory, 005582), DBA/2J mice (The Jackson Laboratory, 000671) Igf1r^(lax) inducible knockout mice (The Jackson Laboratory, 012251) as well as Cx3cr1^tm2.1(cre/ERT2) mice were obtained from the Jackson Laboratory. Igf1r^(lax) mice were crossed with Cx3cr1^tm2.1(cre/ERT2) mice to generated Igf-1r specific knock out on microglia after 3 consecutive days injection of 100 mg/kg tamoxifen to mice. IGFBPL1 deficiency mice at a C57BL/6J genetic background (Knockout Mouse Project Repository, University of California at Davis) were used in following experiments. Mice of both genders were randomized into control and experimental groups. All experimental procedures and use of animals were approved and monitored by the Institute's Animal Care Committee and conform to the standards of the National Institute of Health and the Association for Research in Vision and Ophthalmology.
Adult mice were anesthetized by i.p. injection of ketamine (120 mg/kg)/xylazine (20 mg/kg) mixture using 25 G needle. […] Mice will be placed on a warm pad and monitored every 15 minutes until awake and fully sternal.
The adult mice were dark adapted in a dark adaptation chamber overnight before conducting ERG. […] The pSTR was measured from the baseline to the peak of the positive deflection. […]

[2] = tested on: microglial cultures isolated from the retina and brain or the BV2 cells; test: COX2 immunostaining in LPS-treated microglial cultures (retina, brain, BV2 cells); type: cell-based, mouse; conditions: IGFBPL1 added 6 hr after LPS
Experimental: For primary retinal microglia isolation, microglia cells were isolated from mice retina using magnetic CD11b microbead (BD, 558013). The purification protocol was following manufacture's instructions. Briefly, the papain dissociated retinal cells were resuspended into diluted BD IMag™ Buffer (BD, Cat. No. 552362). After 6-8 mins washing at 300 g, 50 ul of magnetic CD11b microbeads were added for every 10^7 total cells and then incubated for 30 mins at 6-12° C. Then bring the BD IMag-particle labeling volume up to 1-8×10^7 cells/ml with 1×BD IMag™ buffer, and immediately place the tube on the Cell Separation Magnet (BD, Cat. No. 552311). Carefully aspirate off the supernatant after 6-8 minutes incubation at room temperature, and then repeat two times washing. The positive fractions left in the tube were then collected for culture. Around 3000 cells per well were seeded in 8-well Nunc® Lab-Tek™ II Chamber Slide™ (Thermo Scientific, Cat. No. 154534PK). The isolated microglial cells were cultured at 37° C. with 5% C02 in DMEM with 10% FBS and 50 ng/ml rmCSF1 (PeproTech, Cat. No. 315-02).
For primary mouse brain microglia isolation, we optimized our protocol based previously reported protocol^2. First step was to collect brain after perfusing mice with saline. […]

B1: IGFBPL1: insulin-like growth factor binding protein like protein 1; recombinant protein (R&D system, 4130-BL) (protein)
chain: LGLRDAGRRHPECSPCQQDRCPAPSPCPAPWISARDECGCCARCLGAEGASCGGPVGSRCGPGLVCASRASGTAPEGTGLCVCAQRGAVCGSDGRSYSSICALRLRARHAPRAHHGHLHKARDGPCEFAPVVLMPPRDIHNVTGTQVFLSCEVKAVPTPVITWKKVKHSPEGTEGLEELPGDHVNIAVQVRGGPSDHETTSWILINPLRKEDEGVYHCHAANAIGEAQSHGTVTVLDLNRYKSLYSSVPGDLL
- Survived axon in optic nerve ([1]; versus vehicle-treated group): significantly preserved
- RGC density and pSTR amplitude ([1]; after four monthly doses): effectively protect RGCs and functions
- LPS-induced COX2 upregulation [2]: suppressed

— US20250051458A1, “Methods for Treating Neurodegeneration Targeting IGF1/IGF1R” (The Schepens Eye Research Institute, Inc., priority 2021, published 2025)
